The results in this text go back to doi:10.1101/2019.12.30.891283 (bioRxiv, 2019).

The data set deals with the molecule itself. The experiment in a line: native MS.

B1: enoyl-ACP reductase (FabI) from E. coli (enzyme)
chain: MGFLSGKRILVTGVASKLSIAYGIAQAMHREGAELAFTYQNDKLKGRVEEFAAQLGSDIVLQCDVAEDASIDTMFAELGKVWPKFDGFVHSIGFAPGDQLDGDYVNAVTREGFKIAHDISSYSFVAMAKACRSMLNPGSALLTLSYLGAERAIPNYNVMGLAKASLEANVRYMANAMGPEGVRVNAISAGPIRTLAASGIKDFRKMLAHCEAVTPIRRTVTIEDVGNSAAFLCSDLSAGISGEVVHVDGGFSIAAMNELELK
What is called stoichiometry N is a count of units in the complex or per binding partner. B1: the “stoichiometry N” value stood at 4.
